{"source": "patent US20220112288A1", "about": "(published 2022)", "binders": {"B1": {"name": "75110_08A13A (antibody, V domains shown)", "VH": "EVQLVESGGGLVQPGGSLRLSCAASGFIFSSYWMSWVRQAPGKGLEWVANIKQDGSEKYYMDSVKGRFTISRDNAKNSLYLQMNSLRAEDTAVYYCARDNSYYYYGMDVWGQGTTVTVSS", "VL": "AIQMTQSPSSLSASVGDRVTITCRASQGIRDDLGWYQQKPGKAPKLLIFAASSLQSGVPSSFSGSGSGTDFTLTISSLQPEDFATYYCLHHYNYPYTFGQGTKLEIK", "notes": "Tested as non-clonal hybridoma supernatant (AlivaMab Mouse Kappa), detected with anti-mouse Fc and anti-human kappa"}, "B2": {"name": "75110_05A11A (antibody, V domains shown)", "VH": "EVQLVESGGGLVKPGGSLTLSCAASGFTFSNTWMSWVRQAPGKGLEWVGRIKSKIDGGTTDYAAPVKGRFTISRDDSKNTLYLQMNSLKTEDTAVYYCTTSGTYSSGWGLFDYWGQGTLVTVSS", "VL": "DIQMTQSPSSLSASVGDRVTITCQASQDISNYLNWYQQKPGKAPKLLIYDTSNLEAGVPSRFSGSGSGTHFTLTISSLQPEDIATYYCQQYDNLPFTFGGGTRVEIK", "notes": "as for B1"}, "B3": {"name": "75110_02I18A (antibody, V domains shown)", "VH": "EVQVVESGGGLVQPGGSLRLSCAASGFTFSSYDMHWVRQATGKGLEWVSTIGTAGDTYYPGSVKGRFTISRENAKNSLYLQMNSLRAGDTAVYYCARGGYYYYGMDVWGQGTTVTVSS", "VL": "EIVLTQSPGTLSLSPGERATLSCRASQSVSSSYLAWYQQKPGQSPRLLIHGASSRATGIPDRVSGSGSGTDFTLTISRLEPEDFAVYYCQQYGSSPFTFGPGTKVDIK", "notes": "as for B1"}, "B4": {"name": "75110_05F19A (antibody, V domains shown)", "VH": "B3 VH with V4L, S31N, M34V, A40P, Y101D, M105L", "VL": "not shown", "notes": "as for B1"}, "B5": {"name": "75110_01C18A (antibody, V domains shown)", "VH": "EVQLVESGGGLIQPGGSLRLSCAASGFTVSSNYMNWVRQAPGKGLEWVSVIYAGDNTYSADSVKGRFTISRDNSNNTLCLQMNSLRAEDTAVYYCAREGGTTGAFDIWGQGTMVTVSS", "VL": "DIQMTQSPSSVSASVGDRVTITCRASQGINSWLAWYQQKPGKAPKLLIYAASSLQSGVPSRFSGSGSGTDFTLTISSLQPEDFATYYCQQGNSFPYTFGQGTKLEIK", "notes": "as for B1"}, "B6": {"name": "75110_05E13A (antibody, V domains shown)", "VH": "EVQLVESGGDLVKPGGSLRLSCAASGFSFSNAWMSWVRQAPGKGLEWVGRVESKTDGGTTDYAAPVKDRFTISRDDSKYTLYLQMNSLKTEDSAVYYCTIGGGFGLELYGFFDYWGQGTLVTVSS", "VL": "DIQMTQSPSTLSASVGDRVTITCRASQSISSWLAWYQQKPGKAPMLLIYKASSLESGVPSRFSGSGSGTEFTLTISSLQPDDFATYYCLQYNSYYTFGQGTKLEIK", "notes": "as for B1"}, "B7": {"name": "75110_07J24A (antibody, V domains shown)", "VH": "QAQLQESGPGLVKPSETLSLTCTVSGGSISSYYYNWIRQPAGKGLEWIGRIYTSGRTDYNPSLKSRVTMSADTSKNQFSLKLSSVTAADTAVYYCARDEGPTDAFDIWGQGTMVTVSS", "VL": "DIVMTQTPLSLPVTPGEPASISCRSSQSLLDSDDGNTYLDWYLQKPGQSPHLLIYTLSYRASGVPDRFSGSGSGSDFTLKISRVEAEDVGVYYCMQRIEFPFTFGPGTKVDIK", "notes": "as for B1"}, "B8": {"name": "75110_04G02A (antibody, V domains shown)", "VH": "not shown", "VL": "DIVMTQSPDSLAVSLGERATINCKSSQSVLYSSNNKNYLAWYQQKPGQPPKLLFYWASARESGVPDRFSGSGSGTDFTLTISSLQAEDVALYYCQQYFGSFPTFGQGTKLEIK", "notes": "as for B1"}}, "note": "Changes are numbered by the printed parent chain."}
{"target": "T1, human CD4 on cells (SKW3 cells; human PBMCs) (human, UniProt P01730 26-458)", "T1 construct": "whole, on cells; SKW3 CD4 knockout cells served as the negative cell line for the WT vs KO ratios; also called hCD4; SKW3 WT", "assay": "FACS primary screen, non-clonal hybridoma supernatant; SKW3 WT vs SKW3 CD4 KO cells, anti-hKappa-FITC", "units": {"SKW3 WT vs KO anti-hKappa-FITC": "fold"}}
{"binder": "B1", "SKW3 WT vs KO anti-hKappa-FITC": 1}
{"binder": "B2", "SKW3 WT vs KO anti-hKappa-FITC": 1.8}
{"binder": "B3", "SKW3 WT vs KO anti-hKappa-FITC": 2.2}
{"binder": "B4", "SKW3 WT vs KO anti-hKappa-FITC": 2.8}
{"binder": "B5", "SKW3 WT vs KO anti-hKappa-FITC": 3.7}
{"binder": "B6", "SKW3 WT vs KO anti-hKappa-FITC": 1.9}
{"binder": "B7", "SKW3 WT vs KO anti-hKappa-FITC": 1.8}
{"binder": "B8", "SKW3 WT vs KO anti-hKappa-FITC": 1.5}
{"target": "T1, human CD4 on cells (SKW3 cells; human …)", "assay": "SKW3 FACS binning; competitor OKT4-A488 added after supernatant (background 2163, max binding 8200)"}
{"binder": "B1", "OKT4 A488 signal in binning": 7980}
{"binder": "B2", "OKT4 A488 signal in binning": 8160}
{"binder": "B3", "OKT4 A488 signal in binning": 9230}
{"binder": "B4", "OKT4 A488 signal in binning": 8920}
{"binder": "B5", "OKT4 A488 signal in binning": 9490}
{"binder": "B6", "OKT4 A488 signal in binning": 9330}
{"binder": "B7", "OKT4 A488 signal in binning": 7730}
{"binder": "B8", "OKT4 A488 signal in binning": 9330}
{"target": "T2, huCD4-HIS (human, UniProt P01730 26-390, limits assumed)", "T2 construct": "Named only in the head of the ELISA binning column; not shown: HIS tag", "assay": "ELISA binning; competitor Ibalizumab, 100 ng/mL huCD4-HIS, anti-HIS HRP detection (background 45, max binding 3000000)"}
{"binder": "B1", "Ibalizumab ELISA binning signal": 230000}
{"binder": "B2", "Ibalizumab ELISA binning signal": 45}
{"binder": "B3", "Ibalizumab ELISA binning signal": 291000}
{"binder": "B4", "Ibalizumab ELISA binning signal": 45}
{"binder": "B5", "Ibalizumab ELISA binning signal": "1.78e+06"}
{"binder": "B6", "Ibalizumab ELISA binning signal": 45}
{"binder": "B7", "Ibalizumab ELISA binning signal": 215000}
{"binder": "B8", "Ibalizumab ELISA binning signal": 45}
{"target": "T1, human CD4 on cells (SKW3 cells; human …)", "assay": "FACS confirmation, supernatant on human PBMCs, anti-mFc 647, percent of viable cells", "units": {"CD4+ Percent Bound of Viable": "%"}}
{"binder": "B1", "CD4+ Percent Bound of Viable": 29}
{"binder": "B2", "CD4+ Percent Bound of Viable": 26}
{"binder": "B3", "CD4+ Percent Bound of Viable": 29}
{"binder": "B4", "CD4+ Percent Bound of Viable": 31}
{"binder": "B5", "CD4+ Percent Bound of Viable": 31}
{"binder": "B6", "CD4+ Percent Bound of Viable": 26}
{"binder": "B7", "CD4+ Percent Bound of Viable": 33}
{"binder": "B8", "CD4+ Percent Bound of Viable": 27}
{"target": "T1, human CD4 on cells (SKW3 cells; human …)", "assay": "FACS primary screen, non-clonal hybridoma supernatant; SKW3 WT vs SKW3 CD4 KO cells, anti-mFc-647", "units": {"SKW3 WT vs KO anti-mFc-647": "fold"}}
{"binder": "B1", "SKW3 WT vs KO anti-mFc-647": 2.7}
{"binder": "B2", "SKW3 WT vs KO anti-mFc-647": 3.4}
{"binder": "B3", "SKW3 WT vs KO anti-mFc-647": 4.2}
{"binder": "B4", "SKW3 WT vs KO anti-mFc-647": 10.6}
{"binder": "B5", "SKW3 WT vs KO anti-mFc-647": 14.7}
{"binder": "B6", "SKW3 WT vs KO anti-mFc-647": 5.8}
{"binder": "B7", "SKW3 WT vs KO anti-mFc-647": 6.2}
{"binder": "B8", "SKW3 WT vs KO anti-mFc-647": 6.6}
{"target": "T1, human CD4 on cells (SKW3 cells; human …)", "assay": "FACS confirmation, supernatant on human PBMCs, anti-mFc 647, CD4+ gate"}
{"binder": "B1", "CD4+ gate RL1 Binding": 258000}
{"binder": "B2", "CD4+ gate RL1 Binding": 247000}
{"binder": "B3", "CD4+ gate RL1 Binding": 275000}
{"binder": "B4", "CD4+ gate RL1 Binding": 281000}
{"binder": "B5", "CD4+ gate RL1 Binding": 308000}
{"binder": "B6", "CD4+ gate RL1 Binding": 231000}
{"binder": "B7", "CD4+ gate RL1 Binding": 234000}
{"binder": "B8", "CD4+ gate RL1 Binding": 178000}
{"target": "T1, human CD4 on cells (SKW3 cells; human …)", "assay": "FACS confirmation, supernatant on SKW3 WT cells, anti-mFc 647 (Bkrd gMFI = 3300)", "units": {"gMFI": "gMFI"}}
{"binder": "B1", "gMFI": 9180}
{"binder": "B2", "gMFI": 24400}
{"binder": "B3", "gMFI": 16500}
{"binder": "B4", "gMFI": 42200}
{"binder": "B5", "gMFI": 34900}
{"binder": "B6", "gMFI": 45600}
{"binder": "B7", "gMFI": 30900}
{"binder": "B8", "gMFI": 12000}
{"target": "T1, human CD4 on cells (SKW3 cells; human …)", "assay": "SKW3 FACS binning; competitor OKT4a added after supernatant, anti-hu A647 secondary (background 5000, max binding 35000)"}
{"binder": "B1", "OKT4a anti-hu A647 signal in binning": 42000}
{"binder": "B2", "OKT4a anti-hu A647 signal in binning": 35000}
{"binder": "B3", "OKT4a anti-hu A647 signal in binning": 44800}
{"binder": "B4", "OKT4a anti-hu A647 signal in binning": 30000}
{"binder": "B5", "OKT4a anti-hu A647 signal in binning": 36200}
{"binder": "B6", "OKT4a anti-hu A647 signal in binning": 36400}
{"binder": "B7", "OKT4a anti-hu A647 signal in binning": 33800}
{"binder": "B8", "OKT4a anti-hu A647 signal in binning": 22500}
{"target": "T1, human CD4 on cells (SKW3 cells; human …)", "assay": "FACS confirmation, supernatant on SKW3 WT cells, anti-hu Kappa FITC (Bkrd gMFI = 2500)", "units": {"gMFI": "gMFI"}}
{"binder": "B1", "gMFI": 3140}
{"binder": "B2", "gMFI": 6620}
{"binder": "B3", "gMFI": 5370}
{"binder": "B4", "gMFI": 8510}
{"binder": "B5", "gMFI": 6530}
{"binder": "B6", "gMFI": 8050}
{"binder": "B7", "gMFI": 5830}
{"binder": "B8", "gMFI": 4060}
{"target": "T1, human CD4 on cells (SKW3 cells; human …)", "assay": "SKW3 FACS binning; competitor RPA-T4-PE-Dazzle 594 added after supernatant (background 783, max binding 15000)"}
{"binder": "B1", "RPA-T4-PE-Dazzle 594 signal in binning": 13300}
{"binder": "B2", "RPA-T4-PE-Dazzle 594 signal in binning": 17200}
{"binder": "B3", "RPA-T4-PE-Dazzle 594 signal in binning": 4410}
{"binder": "B4", "RPA-T4-PE-Dazzle 594 signal in binning": 15900}
{"binder": "B5", "RPA-T4-PE-Dazzle 594 signal in binning": 16500}
{"binder": "B6", "RPA-T4-PE-Dazzle 594 signal in binning": 16500}
{"binder": "B7", "RPA-T4-PE-Dazzle 594 signal in binning": 8460}
{"binder": "B8", "RPA-T4-PE-Dazzle 594 signal in binning": 12100}
